Results published in US11260100B2, “Compositions targeting the interaction domain between p27Kip1 and Brk and methods of use thereof to inhibit p27 Y phosphorylation and cdk4 activity” (The Research Foundation for the State University of New York, priority 2014, dated 2022).
Ends that are not written are not given here.

Columns and labels:
metastatic breast cancer = metastatic breast cancer patients; cited from earlier work
[1] = target: T1, Brk phosphorylation of p27 (Homo sapiens, UniProt P46527+Q13882); assay: In vitro Brk phosphorylation of p27 with competitor, pY88/pY74 immunoblot; type: biochemical; conditions: increasing amounts of competitor
T1 construct: were incubated with p27 before the addition of full length Brk and ATP; We incubated full length p27 with Src or Brk in the presence of ATP; purchased SignalChem (GST-PTK6/Brk) or Invitrogen (His-PTK6/Brk); host or cells: p27 made in house in E. coli
T1 sequence (Q13882 whole entry): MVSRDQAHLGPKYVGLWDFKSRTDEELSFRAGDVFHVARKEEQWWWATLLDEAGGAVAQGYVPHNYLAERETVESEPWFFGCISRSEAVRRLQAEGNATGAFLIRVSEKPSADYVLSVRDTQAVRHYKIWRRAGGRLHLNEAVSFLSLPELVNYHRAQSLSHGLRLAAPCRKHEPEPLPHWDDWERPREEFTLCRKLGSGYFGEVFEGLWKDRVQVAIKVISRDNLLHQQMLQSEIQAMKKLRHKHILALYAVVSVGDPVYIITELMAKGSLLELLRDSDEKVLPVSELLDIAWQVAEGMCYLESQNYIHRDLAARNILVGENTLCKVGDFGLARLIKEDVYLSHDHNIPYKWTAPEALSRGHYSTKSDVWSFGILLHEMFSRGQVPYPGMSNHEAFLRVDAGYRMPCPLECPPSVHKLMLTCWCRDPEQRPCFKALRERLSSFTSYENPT
T1 sequence (P46527 whole entry): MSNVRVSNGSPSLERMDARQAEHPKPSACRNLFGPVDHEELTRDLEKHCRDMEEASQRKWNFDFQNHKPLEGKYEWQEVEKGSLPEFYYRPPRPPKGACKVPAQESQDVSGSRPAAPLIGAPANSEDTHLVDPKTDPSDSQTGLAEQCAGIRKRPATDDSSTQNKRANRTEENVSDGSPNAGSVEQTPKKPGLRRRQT
Protocol: (§1) FIGS. 3A-3D: SH3:PxxP interaction is required for p27 Y88 phosphorylation. (FIG. 3A) p27 and Brk were incubated with ATP and with increasing concentrations of the PxxP competitor, F58-106, followed by immunoblot analysis with pY88, pY74 and p27 antibodies. Lane 5: +equimolar amount of F58-106 and p27, lane 6: ++2.5×F58-106, lane 7: +++5×F58-106, lane 8: ++++10×F58-106. (FIG. 3B) GST-Brk, p27 and F58-106 were incubated, immunoprecipitated with GST antibodies, followed by immunblot analysis with GST or p27 antibodies. (FIG. 3C) Increasing amounts of GST-SH3, GST-SH2 or GST peptides were incubated with p27, followed by immunoblot analysis with pY88, pY74, p27 and GST antibodies. Lanes 3, 5, 7: 2.5× competitor, lanes 4, 6, […]: 5× competitor. (FIG. 3D) GST-SH3, GST-SH2 or GST peptides were incubated with p27 or ΔK1/K3, followed by metal agarose chromatography and immunoblot analysis with GST and p27 antibodies. Loading control: GST peptides added to the reaction which are not representative of association.
FIGS. 8A-8G: Alt Brk (SEQ ID NO: 17) acts as an endogenous inhibitor of Brk. (FIG. 8A) Flag tagged WT p27 was incubated with increasing amount of Flag tagged Alt-Brk (lanes 5-7) in presence of equal amount of Brk. Lane 5: +equimolar Brk and Alt, lane 6: ++2.5×Alt, lane 7: +++5×Alt Immunoblot analysis was performed using Flag, pY88 and pY74 antibodies. (FIG. 8B) Alt-Brk expressing cells were plated on day 0. They were induced (+Tet) or uninduced (−Tet) on day 1 and cells were harvested on days 2, 3 and 4 Immunoblot analysis was performed using N-terminal Brk, C-terminal Brk, Rb, Ser780 pRb, Flag or Actin antibodies. (FIG. 8C) p27 was immunoprecipitated from induced (+) or un-induced (−) Alt Brk expressing cells and immunoblot analysis was performed with p27, pY88 and pY74 antibodies. (FIG. 8D) Alt Brk or TRE3G vector alone cells were treated with + or −Tet and cell counts were used to monitor proliferation. […] (FIG. 8F) p27 was immunoprecipitated from MCF7 cells that were either contact arrested (G0), asynchronous (A), or serum starved with 1% and 0% serum for 48 h. Immunoblot analysis was performed to probe for p27, pY88 and pY74. IgG and Mv1Lu lysates served as a negative control. (FIG. 8G) Expression of WT or mutant p27s was induced by adding Tetracycline to the culture media. p27 was immunoprecipitated from cell lysates and probed for p27, pY88 and pY74 Immunoprecipitation with IgG served as a negative control.
It appeared that the SH3:PxxP interaction was required for Y88 phosphorylation. […]
To directly verify this, we expressed a Flag-tagged Alt-Brk in bacteria and purified this 15 Kd protein (FIG. 8A). When p27 was incubated with Brk, Y88 and Y74 phosphorylation was detected by immunoblot analysis (FIG. 8A, lane 3). […]

GST-Brk = target: T2, GST-Brk (Homo sapiens, UniProt Q13882); assay: GST immunoprecipitation of GST-Brk with p27 and/or F58-106; type: binding
T2 construct: this K1-containing peptide was sufficient to associate with full length Brk; purchased SignalChem
T2 sequence (Q13882 whole entry): as the sequence (Q13882 whole entry) above
Protocol: as §1
We then performed the converse reaction, and increasing amounts of individual recombinant, GST-tagged pieces of Brk (GST-SH2, GST-SH3) or GST peptides were incubated with p27 before the addition of full length Brk and ATP. The reactions were probed by immunoblot analysis with pY88 and pY74 antibodies (FIG. 3C).

WT p27 = target: T3, WT p27 (Homo sapiens, UniProt P46527); assay: Metal agarose chromatography of His-p27 with GST peptides; type: binding; conditions: absence of ATP
T3 construct: made in house; host or cells: E. coli
T3 sequence (P46527 whole entry): as the sequence (P46527 whole entry) above
Protocol: as §1
(§2) We incubated the GST, GST-SH3, or GST-SH2 peptides with His-tagged versions of p27 and the ΔK1/K3 mutant, isolated complexes by metal agarose chromatography and performed immunoblot analysis with GST antibodies (FIG. 3D). […] However, this binding was independent of the PxxP K1 site (FIG. 3D, lane 3). […]

ΔK1/K3 p27 = target: T4, ΔK1/K3 p27 (Homo sapiens, UniProt P46527, K189A/K190A/P188A/P191A/P91A/P92A/P94A/P95A); assay: Metal agarose chromatography of His-ΔK1/K3 p27 with GST peptides; type: binding; conditions: absence of ATP
T4 construct: made in house; host or cells: E. coli
T4 sequence (P46527 whole entry P91A/P92A/P94A/P95A/P188A/K189A/K190A/P191A): as the sequence (P46527 whole entry) above, with P91A, P92A, P94A, P95A, P188A, K189A, K190A, P191A counted along it
Protocol: as §1, §2

Brk SH3 domain = target: T5, Brk SH3 domain (Homo sapiens, UniProt Q13882); assay: Phage-ELISA of GST-PxxP peptides (K1, K2, K3) against SH3 phages; type: binding; conditions: GST-fusion PxxP peptides
T5 construct: made in house; host or cells: phage supernatants
T5 sequence (Q13882 8-72 limits assumed): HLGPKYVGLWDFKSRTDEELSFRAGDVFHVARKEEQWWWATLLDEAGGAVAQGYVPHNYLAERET
From the text: (§3) FIGS. 1A-1C: Brk binds to p27 with high affinity in vitro. (FIG. 1A) p27 sequence highlighting the proline tracts of the three putative SH3 domain recruitment sites (PxxP): K1 (90-96), K2 (114-117) and K3 (188-195) (SEQ ID NO: 1). Phage-ELISA-analysis of SFK SH3 interactions with p27 (FIG. 1B) or p27's PxxP motifs (FIG. 1C). Data shown is the mean of three independent experiments±standard deviation after normalization and subtraction of the background binding to GST. (FIG. 1C) Recombinantly produced GST-K1, (amino acids 85-102 of SEQ ID NO: 1), −K2, (amino acids 108-123 of SEQ ID NO: 1), −K3 (amino acids 182-197 of SEQ ID NO: 1), or GST was immobilized in 96-well plates and analyzed for binding of the phages with the Brk-, Frk-, Yes-, or Abl-SH3 domain.
The following materials and methods are provided to facilitate the practice of the present invention. • Antibodies. Mouse Anti-p27(Kip1), BD Biosciences 610242. Cdk4 (DCS-35), p27 (N-20), C-terminal Brk (C-18), Brk (D-6), N-terminal Brk (N-20), c-Src (SC-18), Cyclin D1 (H 295), ARHGDIA (A-20), Santa Cruz Biotechnology. Anti-beta galactosidase antibody is from RND systems (af6464). Phosphotyrosine (P-Tyr-100), Cell Signaling Technology. Cdk4 (C-term, Cat. No. AP7520b), Abgent. GST (PRB-112C), Covance. Flag (F3165), Actin (A2066), Sigma Aldrich. Phospho Brk (Tyr342), EMD Millipore. pY74, Y88 and Y89 phospho-specific antibodies were generated by immunization of rabbits with phosphor-specific p27 peptides (Invitrogen). Negative- and positive-affinity chromatography with non-phosphorylated and phosphorylated peptides respectively, were performed to purify the antibodies. The antibodies are specific only for Y88,Y89, Y74 phosphorylation respectively (FIG. 2B, data not shown). • Enzymes. Gst-PTK6/Brk, GST-Src (SignalChem), His-Abl (New England Biolabs), His-PTK6/Brk, His-Src (Invitrogen) were used according to manufacturer's specifications. […] Phage supernatants were generated and binding of SH3-phages to recombinantly produced His-tagged-p27 or GST-PxxP-peptides was analyzed as described (28). • Construction of mutants and peptides. […]

full-length p27 = target: T6, full-length p27 (Homo sapiens, UniProt P46527); assay: Phage-ELISA of SFK SH3 domain interactions with p27; conditions: phages carry many reiterated SH3 domains, which would enhance binding; read-out: Kd of interaction with full-length p27
T6 construct: made in house; host or cells: E. coli
T6 sequence (P46527 whole entry, the tested form may be a part): as the sequence (P46527 whole entry) above
From the text: as §3
The following materials and methods are provided to facilitate the practice of the present invention. • Antibodies. Mouse Anti-p27(Kip1), BD Biosciences 610242. Cdk4 (DCS-35), p27 (N-20), C-terminal Brk (C-18), Brk (D-6), N-terminal Brk (N-20), c-Src (SC-18), Cyclin D1 (H 295), ARHGDIA (A-20), Santa Cruz Biotechnology. Anti-beta galactosidase antibody is from RND systems (af6464). Phosphotyrosine (P-Tyr-100), Cell Signaling Technology. […] Phage supernatants were generated and binding of SH3-phages to recombinantly produced His-tagged-p27 or GST-PxxP-peptides was analyzed as described (28). • Construction of mutants and peptides. […]

Molecule: N#Cc1ccc(C(c2ccc(C#N)cc2)n2cncn2)cc1 [letrozole]
- median PFS (metastatic breast cancer): 10.2 months

Molecule: F58-106: Flagged tagged K1-site containing peptide, p27 residues 58 to 106 (RKWNFDFQNHKPLEGKYEWQEVEKGSLPEFYYRPPRPPKGACKVPAQES; also: Flag tag, site not given here)
- p27 Y74 phosphorylation by Brk [1]: only slightly reduced
- p27 Y88 phosphorylation by Brk [1]: decreased
- association with GST-Brk (GST-Brk): interacted

Molecule: GST-SH2: recombinant GST-tagged SH2 piece of Brk [reference compound]
- p27 Y74 phosphorylation by Brk [1]: did not reduce
- p27 Y88 phosphorylation by Brk [1]: did not reduce
- association with WT p27 (WT p27): bound
- association with ΔK1/K3 p27 (ΔK1/K3 p27): bound

Molecule: K1: GST-fusion peptide, amino acids 85-102 of p27 (SEQ ID NO: 1) (PEFYYRPPRPPKGACKVP; also: GST-fusion peptide; listed as Homo sapiens)
- interaction with Brk SH3 domain (Brk SH3 domain): weakly

Molecule: K2: GST-fusion peptide, amino acids 108-123 of p27 (SEQ ID NO: 1) (DVSGSRPAAPLIGAPA; also: GST-fusion peptide; listed as Homo sapiens)
- interaction with Brk SH3 domain (Brk SH3 domain): No SH3 domains interacted

Molecule: K3: GST-fusion peptide, amino acids 182-197 of p27 (SEQ ID NO: 1) (GSVEQTPKKPGLRRRQ; also: GST-fusion peptide; listed as Homo sapiens)
- interaction with Brk SH3 domain (Brk SH3 domain): strongly

Molecule: SH3 domain of Brk: Brk SH3 domain displayed on phages (SEQ ID NO: 2)
- Kd (full-length p27): 250 nM
